This data set deals with the molecule itself. Description: SEC-MALS; pure protein on XBridge BEH200 7.8 x 300 in 50 mM Tris 7.8, 200 mM NaCl, 5 mM β-ME, 1 mL/min; MALS with refractive index. On the technique in general: Size exclusion chromatography separates by hydrodynamic size, large species first.

B1: deoxyhypusine synthase (DHS), full-length, wild type (enzyme, human, UniProt P49366 1-369, looked up)
chain: MEGSLEREAPAGALAAVLKHSSTLPPESTQVRGYDFNRGVNYRALLEAFGTTGFQATNFGRAVQQVNAMIEKKLEPLSQDEDQHADLTQSRRPLTSCTIFLGYTSNLISSGIRETIRYLVQHNMVDVLVTTAGGVEEDLIKCLAPTYLGEFSLRGKELRENGINRIGNLLVPNENYCKFEDWLMPILDQMVMEQNTEGVKWTPSKMIARLGKEINNPESVYYWAQKNHIPVFSPALTDGSLGDMIFFHSYKNPGLVLDIVEDLRLINTQAIFAKCTGMIILGGGVVKHHIANANLMRNGADYAVYINTAQEFDGSDSGARPDEAVSWGKIRVDAQPVKVYADASLVFPLLVAETFAQKMDAFMHEKNED
modifications: Cys177 covalently modified to a β-mercaptoethanol (BME) adduct (seen in all crystal structures)
notes: human deoxyhypusine synthase, Uniprot P49366, residues 1-369; gene optimised for E. coli and synthesised; Cloned in pET24d (NcoI/BamHI) with an N-terminal 6xHis-tag and a TEV site; also called DHS wt; full length DHS; source: E. coli BL21(DE3), purified (HisTrap, TEV cleavage, reverse HisTrap, SEC); not shown: His6, N-terminal, cleaved
One may read the stoichiometry N as a count of units in the complex or per binding partner. B1: the “stoichiometry N” value amounted to 4.

B2: truncated DHS Δ1-52 (domain or fragment, human, UniProt P49366 53-369, looked up)
chain: GFQATNFGRAVQQVNAMIEKKLEPLSQDEDQHADLTQSRRPLTSCTIFLGYTSNLISSGIRETIRYLVQHNMVDVLVTTAGGVEEDLIKCLAPTYLGEFSLRGKELRENGINRIGNLLVPNENYCKFEDWLMPILDQMVMEQNTEGVKWTPSKMIARLGKEINNPESVYYWAQKNHIPVFSPALTDGSLGDMIFFHSYKNPGLVLDIVEDLRLINTQAIFAKCTGMIILGGGVVKHHIANANLMRNGADYAVYINTAQEFDGSDSGARPDEAVSWGKIRVDAQPVKVYADASLVFPLLVAETFAQKMDAFMHEKNED
notes: human deoxyhypusine synthase, Uniprot P49366, residues 53-369 (lacks the N-terminal ball-and-chain motif, residues 1-52); Cloned in pET24d with an N-terminal 6xHis-tag and a TEV site; also called truncation mutant; source: E. coli BL21(DE3), purified (HisTrap, TEV cleavage, reverse HisTrap, SEC); not shown: His6, N-terminal, cleaved
On to B2, for which the “stoichiometry N” value is 2.
